{"source": "patent US20160187342", "about": "“DNA Aptamer Specifically Binding to EN2 (Engrailed-2) and Use Thereof” (POSTECH ACADEMY-INDUSTRY FOUNDATION, published 2016)", "binders": {"B1": {"name": "dsDNA probe (dsDNA)", "DNA 1": "CGTGTAATTACCTC", "DNA 2": "GAGGTAATTACACG"}}, "key": {"EN2 (Engrailed-2) [1]": {"molecular_target": "T1, EN2 (Engrailed-2) (UniProt P19622 P19622:1-333)", "T1 sequence": "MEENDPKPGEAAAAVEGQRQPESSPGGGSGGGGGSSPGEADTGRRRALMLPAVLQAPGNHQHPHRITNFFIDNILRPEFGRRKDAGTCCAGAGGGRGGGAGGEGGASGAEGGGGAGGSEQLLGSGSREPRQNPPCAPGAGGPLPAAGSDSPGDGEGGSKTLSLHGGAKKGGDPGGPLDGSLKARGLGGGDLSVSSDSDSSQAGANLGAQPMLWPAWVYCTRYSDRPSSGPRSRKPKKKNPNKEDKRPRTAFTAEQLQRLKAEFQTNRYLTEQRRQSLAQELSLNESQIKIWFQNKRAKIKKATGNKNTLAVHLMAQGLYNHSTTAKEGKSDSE", "experiment": "FAM fluorescence; second strand printed 3'-5' in Table 1; EMSA, SPR and SYBR Green I displacement also showed binding of TAATTA dsDNA", "conditions": "tags: (His)6-tag, pET28a, E. coli BL21(DE3); label: FAM"}, "EN2 (Engrailed-2) [2]": {"molecular_target": "T1, EN2 (Engrailed-2)", "experiment": "FAM fluorescence of protein-bound aptamer", "conditions": "tags: (His)6-tag, pET28a, E. coli BL21(DE3), hairpin", "method": "(§1) Then, in order to compare binding strengths between the EN2 protein and each of the DNA aptamers, a dissociation constant (Kd) between the EN2 protein and each of the DNA aptamers was measured. In this case, fluorescein amidite (FAM) was attached to the DNA aptamer as a marker, and an amount of the DNA aptamer bound to the protein was measured according to a fluorescent signal of FAM."}, "EN2 (Engrailed-2) [3]": {"molecular_target": "T1, EN2 (Engrailed-2)", "experiment": "FAM fluorescence of protein-bound aptamer; printed as hDNA5", "conditions": "tags: (His)6-tag, pET28a, E. coli BL21(DE3); label: FAM; hairpin, loop 8 bases, stem 10 bp", "method": "as §1"}, "[4]": {"molecular_target": "TATA box binding protein (TBP) (UniProt P20226 P20226:1-339)", "sequence (P20226 whole entry, one chain of several)": "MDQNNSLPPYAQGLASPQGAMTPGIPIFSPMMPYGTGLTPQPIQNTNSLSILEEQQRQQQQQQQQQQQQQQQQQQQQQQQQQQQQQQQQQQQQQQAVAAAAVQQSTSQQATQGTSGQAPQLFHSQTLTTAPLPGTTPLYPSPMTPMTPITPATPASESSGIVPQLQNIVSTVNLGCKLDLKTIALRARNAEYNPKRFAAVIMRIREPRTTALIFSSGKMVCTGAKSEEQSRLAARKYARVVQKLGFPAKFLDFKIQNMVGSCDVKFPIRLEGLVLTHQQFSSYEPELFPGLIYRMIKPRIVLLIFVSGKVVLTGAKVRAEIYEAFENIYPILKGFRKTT", "experiment": "impedance biosensor on gold, 10 pM protein in artificial urine", "conditions": "label: FAM (Kd assay); poly A linker to gold surface (biosensor); hairpin, loop 8 bases, stem 14 bp", "method": "In order to identify selective binding of the DNA aptamer, a binding specificity with respect to several protein samples was identified. Each protein was mixed in an artificial urine medium to have a concentration of 10 pM, and then it was identified whether binding to the DNA aptamer was performed."}}, "data": [{"binder": "B1", "values": [{"measurement": "Kd", "setting": "EN2 (Engrailed-2) [1]", "value": 95.2, "unit": "nM"}]}, {"binder": "CGTGTAATTACCTCCAGACCAGGAGAGGTAATTACACG (structured_DNA)", "note": "[hpDNA4]", "values": [{"measurement": "Kd", "setting": "EN2 (Engrailed-2) [2]; label: FAM, loop 10 bases, stem 14 bp", "value": 88.8, "unit": "nM"}]}, {"binder": "CGCAGTGTAATTACCTCGACCAGAAGGAGTCGAGGTAATTACACTGCG (structured_DNA)", "note": "[hpDNA6]", "values": [{"measurement": "Kd", "setting": "EN2 (Engrailed-2) [2]; label: FAM, loop 8 bases, stem 20 bp", "value": 61, "unit": "nM"}]}, {"binder": "CGTGTAATTACCTCCAGGGAGAGGTAATTACACG (structured_DNA)", "note": "[hpDNA2]", "values": [{"measurement": "Kd", "setting": "EN2 (Engrailed-2) [2]; label: FAM, loop 6 bases, stem 14 bp", "value": 98.8, "unit": "nM"}]}, {"binder": "CGTGTAATTACCTCCAGAGAGGTAATTACACG (structured_DNA)", "note": "[hpDNA1]", "values": [{"measurement": "Kd", "setting": "EN2 (Engrailed-2) [2]; label: FAM, loop 4 bases, stem 14 bp", "value": 85.7, "unit": "nM"}]}, {"binder": "CGTAATTACCCAGAAGGAGGTAATTACG (structured_DNA)", "note": "[hpDNA5]", "values": [{"measurement": "Kd", "setting": "EN2 (Engrailed-2) [3]", "value": 68.8, "unit": "nM"}]}, {"binder": "CGTGTAATTACCTCCAGAAGGAGAGGTAATTACACG (structured_DNA)", "note": "[hpDNA3]", "values": [{"measurement": "Kd", "setting": "EN2 (Engrailed-2) [2]; label: FAM (Kd assay), poly A linker to gold surface (biosensor), loop 8 bases, stem 14 bp", "value": 66.3, "unit": "nM"}, {"measurement": "binding result", "setting": "[4]", "value": "no binding"}]}]}
